Here are results for two proteins from article PMC9164213 (Nature, 2021).

This data set deals with the molecule itself. Put plainly: cryo-EM structure.

B1: GsuCas2 (Geobacter sulfurreducens Cas2), tag cleaved (natural protein)
chain: MEHLYIVSYDIRNQRRWRRLFKTMHGFGCWLQLSVFQCRLDRIRIIKMEAAINEIVNHAEDHVLILDLGPAENVKPKVSSIGKTFDPILRQAVIV
For B1, the stoichiometry N (in general, the number of molecules, sites or subunits per partner or assembly) was determined as 2.

B2: GsuCas4/Cas1 (Geobacter sulfurreducens type I-G Cas4/Cas1 natural fusion), tag cleaved (natural protein)
chain: MAETDGSIPLIPVRMLNEHVYCPRLAYLMWVQGEFSHNEFTVDGVIRHRRVDAGGGVLPSETQEDSRIHARSVSLSSERLGITAKIDLVEGEGAYVSPVDYKRGKRPHVAGGAYEPERVQLCAQGLLLREHGFASDGGALYFVASRERVPVAFDDELIGRTLAAIDEMGRTALSGTMPPPLEDSPKCPRCSLVGICLPDEVRFLSHLSVEPRPIIPADGRGLPLYVQSPKAYVRKDGDCLVIEEERVRVAEARLGETSQVALFGNATLTTAALHECLRREIPVTWLSYGGWFMGHTVSTGHRNVETRTYQYQRSFDPETCLNLARRWIVAKIANCRTLLRRNWRGEGDEAKAPPGLLMSLQDDMRHAMRAPSLEVLLGIEGASAGRYFQHFSRMLRGGDGEGMGFDFTTRNRRPPKDPVNALLSFAYAMLTREWTVALAAVGLDPYRGFYHQPRFGRPALALDMMEPFRPLIADSTVLMAINNGEIRTGDFVRSAGGCNLTDSARKRFIAGFERRMEQEVTHPIFKYTISYRRLLEVQARLLTRYLSGEIPAYPNFVTR
Turning to B2, the “stoichiometry N” value turned out to be 2.
